Measurements as given in patent EP2605788B1.

Legend:
Experiment in all cases: cell-based or functional assay
[1] = target: CD20 (human) (UniProt P11836)
[2] = target: CD74 (human) (UniProt P04233)
[3] = target: CD22 (human) (UniProt P20273)

CD20 (human), sequence (P11836 whole entry): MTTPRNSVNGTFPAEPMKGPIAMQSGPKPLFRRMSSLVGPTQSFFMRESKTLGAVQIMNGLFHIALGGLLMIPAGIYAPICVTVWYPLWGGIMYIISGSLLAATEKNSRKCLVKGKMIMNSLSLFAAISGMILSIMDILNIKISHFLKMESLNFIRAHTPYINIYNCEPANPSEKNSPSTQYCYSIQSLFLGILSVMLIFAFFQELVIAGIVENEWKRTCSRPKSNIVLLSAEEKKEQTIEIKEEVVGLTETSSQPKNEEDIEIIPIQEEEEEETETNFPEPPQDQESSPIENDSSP
CD74 (human), sequence (P04233 whole entry): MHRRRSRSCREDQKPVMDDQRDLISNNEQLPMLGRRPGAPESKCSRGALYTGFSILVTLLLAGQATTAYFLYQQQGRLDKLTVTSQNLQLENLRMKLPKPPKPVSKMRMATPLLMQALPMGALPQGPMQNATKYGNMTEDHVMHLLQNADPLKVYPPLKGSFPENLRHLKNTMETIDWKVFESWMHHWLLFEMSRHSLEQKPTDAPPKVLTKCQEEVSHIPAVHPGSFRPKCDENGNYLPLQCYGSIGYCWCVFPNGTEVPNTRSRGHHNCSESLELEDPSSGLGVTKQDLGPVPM

How did the homotypic adhesion (%), JeKo-1, 10 nM, 2 h [1] turn out when 20-(74)-(74) (bispecific antibody) was run?
The homotypic adhesion (%), JeKo-1, 10 nM, 2 h was 90%.

And the homotypic adhesion (%), JeKo-1, 10 nM, 24 h [1]?
Its homotypic adhesion (%), JeKo-1, 10 nM, 24 h is over 95%.

What about the EC50, MTS assay, CLL (WAC, MEC-1), ALL (REH-1, MN60) and MM (CAG, RPMI8226, KMS11, KMS12-BM, KMS12-PE) lines [2] of the same substance?
The EC50, MTS assay, CLL (WAC, MEC-1), ALL (REH-1, MN60) and MM (CAG, RPMI8226, KMS11, KMS12-BM, KMS12-PE) lines was over 100 nM.

And the homotypic adhesion (%), JeKo-1, 10 nM, 2 h [2]?
Its homotypic adhesion (%), JeKo-1, 10 nM, 2 h is 90%.

And the homotypic adhesion (%), JeKo-1, 10 nM, 24 h [2]?
The homotypic adhesion (%), JeKo-1, 10 nM, 24 h was over 95%.

Which EC50, in vitro cytotoxicity, Daudi and Ramos [1] does the source give for 20-Rap here?
Its EC50, in vitro cytotoxicity, Daudi and Ramos is 0.1 nM.

What about the EC50, in vitro cytotoxicity, Jeko-1 [1] of the same substance?
Its EC50, in vitro cytotoxicity, Jeko-1 is 0.02 nM.

And the fold more potent than 22-Rap, in vitro cytotoxicity, Jeko-1 [1]?
Its fold more potent than 22-Rap, in vitro cytotoxicity, Jeko-1 is 25 fold.

What about the in vitro cytotoxicity, NHL cell lines [1] of the same substance?
The in vitro cytotoxicity, NHL cell lines was over 1 nM.

How did the in vitro cytotoxicity, NHL cell lines [3] turn out when 22-Rap was run?
The in vitro cytotoxicity, NHL cell lines was over 1 nM.

With 74-(20)-(20) (bispecific antibody) as the substance, how does the homotypic adhesion (%), JeKo-1, 10 nM, 2 h [1] read?
The homotypic adhesion (%), JeKo-1, 10 nM, 2 h was 90%.

What about the homotypic adhesion (%), JeKo-1, 10 nM, 24 h [1] of the same substance?
The homotypic adhesion (%), JeKo-1, 10 nM, 24 h was over 95%.

And the EC50, MTS assay, CLL (WAC, MEC-1), ALL (REH-1, MN60) and MM (CAG, RPMI8226, KMS11, KMS12-BM, KMS12-PE) lines [2]?
Its EC50, MTS assay, CLL (WAC, MEC-1), ALL (REH-1, MN60) and MM (CAG, RPMI8226, KMS11, KMS12-BM, KMS12-PE) lines is over 100 nM.

What about the homotypic adhesion (%), JeKo-1, 10 nM, 2 h [2] of the same substance?
The homotypic adhesion (%), JeKo-1, 10 nM, 2 h was 90%.

And the homotypic adhesion (%), JeKo-1, 10 nM, 24 h [2]?
The homotypic adhesion (%), JeKo-1, 10 nM, 24 h was over 95%.
